Test results published in patent US11472877 (Alector, dated 2022).
Substitutions are numbered along the chain they refer to.

T1: mouse TREM2 on BWZ cells (mouse, UniProt Q99NH8 19-227)
T1 construct: whole, on cells; also called BWZ Mouse TREM2
T1 sequence (looked up): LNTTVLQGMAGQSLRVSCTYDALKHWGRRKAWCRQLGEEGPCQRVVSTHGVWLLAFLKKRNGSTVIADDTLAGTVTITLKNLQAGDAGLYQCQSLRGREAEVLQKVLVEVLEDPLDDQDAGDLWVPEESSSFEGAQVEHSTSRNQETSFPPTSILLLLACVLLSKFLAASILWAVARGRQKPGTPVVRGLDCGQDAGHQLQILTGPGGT

T2: human TREM2 on BWZ cells (human, UniProt Q9NZC2 19-230)
T2 construct: whole, on cells; not tied to the cell line; also called BWZ Human TREM2
T2 sequence (looked up): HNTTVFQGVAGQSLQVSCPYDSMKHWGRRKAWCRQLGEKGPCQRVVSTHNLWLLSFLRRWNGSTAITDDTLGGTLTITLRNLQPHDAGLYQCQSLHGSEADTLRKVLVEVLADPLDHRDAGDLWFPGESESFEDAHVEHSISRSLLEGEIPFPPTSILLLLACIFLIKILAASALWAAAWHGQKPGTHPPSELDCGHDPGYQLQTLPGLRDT

T3: mouse TREM1 on CHO cells (mouse, UniProt Q9JKE2 21-230)
T3 construct: also called CHO-mT1
T3 sequence: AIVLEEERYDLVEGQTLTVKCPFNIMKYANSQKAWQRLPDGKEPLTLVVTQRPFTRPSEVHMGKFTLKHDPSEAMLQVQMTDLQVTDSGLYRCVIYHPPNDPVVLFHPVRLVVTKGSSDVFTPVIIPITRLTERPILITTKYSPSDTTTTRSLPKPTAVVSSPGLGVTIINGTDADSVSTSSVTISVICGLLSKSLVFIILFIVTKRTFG

B1: T1-34 (antibody, IgG1, V domains shown)
VH: EVQLVESGGGLVKPGGSLRLSCAASGFTFSSYSMNWVRQAPGKGLEWVSSISSSSNYIYYADSVKGRFTISRDNAKNSLYLQMNSLKAEDTAVYYCARRPDDRRGLFQHWGQGTLVTVSS
VL: DIQMTQSPSTLSASVGDRVTITCRASQSINSWLAWYQQKPGKAPKLLISDASSLESGVPSRFSGSGSGTEFTLTISSLQPDDFATYYCQQYGPYPYTFGGGTKVEIK
notes: huIgG1; also called TI-34; ADI-19108
B2: T1-21 (antibody, IgG1, V domains shown)
VH: EVQLVESGGGLVQPGGSLRLSCAASGFTFSSYSMNWVRQAPGKGLEWVSYISSSSSTIYYADSVKGRFTISRDNAKNSLYLQMNSLRAEDTAVYYCARGGPLGYGDYKGMDVWGQGTTVTVSS
VL: DIQLTQSPSSLSASVGDRVTITCRASQSISSFLNWYQQKPGKAPKLLIYAASSLQSGVPSRFSGSGSGTDFTLTISSLQPEDFATYYCQQSYSDLTFGGGTKVEIK
notes: huIgG1; also called TI-21; ADI-19088
B3: T1-14 (antibody, IgG1, V domains shown)
VH: QVQLVESGGGVVQPGRSLRLSCAASGFTFSSYGMHWVRQAPGKGLEWVAVISYDGSNKYYADSVKGRFTISRDNSKNTLYLQMNSLRAEDTAVYYCARRSSGDYLDVWGQGTMVTVSS
VL: not shown
notes: huIgG1; also called TI-14; ADI-19081
B4: T1-12 (antibody, IgG1, V domains shown)
VH: QLQLQESGPGLVKPSETLSLTCTVSGGSISSSSYYWGWIRQPPGKGLEWIGSIYYSGSTYYNPSLKSRVTISVDTSKNQFSLKLSSVTAADTAVYYCARGGGYPWEAFDYWGKGTTVTVSS
VL: EIVLTQSPATLSLSPGERATLSCRASQSVSSYLAWYQQKPGQAPRLLIYDASNRATGIPARFSGSGSGTDFTLTISSLEPEDFAVYYCQQYTSWPLTFGGGTKVEIK
notes: huIgG1; also called TI-12; ADI-19079
B5: T1-17 (antibody, IgG1, V domains shown)
VH: QVQLQESGPGLVKPSETLSLTCTVSGGSISSYYWSWIRQPPGKGLEWIGSIYYSGSTNYNPSLKSRVTISVDTSKNQFSLKLSSVTAADTAVYYCARGAPGGRHNWFDPWGQGTLVTVSS
VL: DIQMTQSPSSLSASVGDRVTITCQASQDISNYLNWYQQKPGKAPKLLIYDASNLATGVPSRFSGSGSGTDFTFTISSLQPEDIATYYCQQSDIHPRTFGGGTKVEIK
notes: huIgG1; also called TI-17; ADI-19084
B6: T1-11 (antibody, IgG1, V domains shown)
VH: QLQLQESGPGLVKPSETLSLTCTVSGGSISSSSYYWGWIRQPPGKGLEWIGSIYYSGSTYYNPSLKSRVTISVDTSKNQFSLKLSSVTAADTAVYYCARSGEYGFDLWGRGTLVTVSS
VL: not shown
notes: huIgG1; also called TI-11; ADI-19078
B7: T1-20 (antibody, IgG1, V domains shown)
VH: EVQLVESGGGLVQPGGSLRLSCAASGFTFSSYWMSWVRQAPGKGLEWVANIKQDGSEKYYVDSVKGRFTISRDNAKNSLYLQMNSLRAEDTAVYYCARDAPQLGLDVWGQGTMVTVSS
VL: not shown
notes: huIgG1; also called TI-20; ADI-19087
B8: T1-13 (antibody, IgG1, V domains shown)
VH: EVQLVESGGGLVKPGGSLRLSCAASGFTFSSYSMNWVRQAPGKGLEWVSSISSSSNYIYYADSVKGRFTISRDNAKNSLYLQMNSLRAEDTAVYYCARGRYRRTGSLDVWGQGTMVTVSS
VL: EIVLTQSPGTLSLSPGERATLSCRASQSVSSSFLAWYQQKPGQAPRLLIYGASSRATGIPDRFSGSGSGTDFTLTISRLEPEDFAVYYCQQLDSHPPTFGGGTKVEIK
notes: huIgG1; also called TI-13; ADI-19080
B9: T1-15 (antibody, IgG1, V domains shown)
VH: EVQLVESGGGLVKPGGSLRLSCAASGFTFSSYSMNWVRQAPGKGLEWVSSISSSSSYIYYADSVKGRFTISRDNAKNSLYLQMNSLRAEDTAVYYCARRGGSYDAFQHWGQGTLVTVSS
VL: B8 VL with F33Y, L92A, D93F, S94I, H95S
notes: huIgG1; also called TI-15; ADI-19082
B10: T1-22 (antibody, IgG1, V domains shown)
VH: QVQLQESGPGLVKPSETLSLTCTVSGGSISSYYWSWIRQPPGKGLEWIGHIYYSGSTNYNPSLKSRVTISVDTSKNQFSLKLSSVTAADTAVYYCARDAGRYYGSSSSWYFDLWGRGTLVTVSS
VL: B8 VL with F33Y, L92Y, D93L, S94I, H95P, P97I
notes: huIgG1; also called TI-22; ADI-19089
B11: T1-16 (antibody, IgG1, V domains shown)
VH: EVQLVESGGGLVQPGRSLRLSCAASGFTFDDYAMHWVRQAPGKGLEWVSGISWNSGSIGYADSVKGRFTISRDNAKNSLYLQMNSLRAEDTALYYCAKGPRMSGWWADWGQGTLVTVSS
VL: DIQMTQSPSSVSASVGDRVTITCRASQGISSWLAWYQQKPGKAPKLLIYAASSLQSGVPSRFSGSGSGTDFTLTISSLQPEDFATYYCQQADTLPITFGGGTKVEIK
notes: huIgG1; also called TI-16; ADI-19083
B12: T1-19 (antibody, IgG1, V domains shown)
VH: EVQLVESGGGLVQPGGSLRLSCAASGFTFSDHHMDWVRQAPGKGLEWVGRTRNKANSYTTEYAASVKGRFTISRDDSKNSLYLQMNSLKTEDTAVYYCARGPLGYKLWGQGTLVTVSS
VL: B11 VL with S53N, D92N, T93S, L94F, I96L
notes: huIgG1; also called TI-19; ADI-19086
B13: T1-25 (antibody, IgG1, V domains shown)
VH: B11 VH with P100G, R101S, M102R, S103Y, G104S, W105H, W106F, A107D, D108Y
VL: B4 VL with Y91R, T92S, S93V, W94L
notes: huIgG1; also called TI-25; ADI-19092
B14: T1-24 (antibody, IgG1, V domains shown)
VH: B11 VH with S52T, M102L, S103L, G104S, W105A, W106L, A107D, D108V, L114M
VL: B1 VL with N30S, S49Y, D50K, Y91D, G92S, P93I, Y96I
notes: huIgG1; also called TI-24; ADI-19150
B15: T1-33 (antibody, IgG1, V domains shown)
VH: QVQLVESGGGVVQPGRSLRLSCAASGFTFSNYGMHWVRQAPGKGLEWVAVIWYDGSNKYYADSVKGRFTISRDNSKNTLYLQMNSLRAEDTAVYYCAKGSTHRGSAYGMDVWGQGTTVTVSS
VL: B11 VL with A91I, D92N, T93D, L94H, I96F
notes: huIgG1; also called TI-33; ADI-19107
B16: T1-23 (antibody, IgG1, V domains shown)
VH: B11 VH with S52T, M102L, S103L, G104S, W105A, W106L, A107D, D108V, L114M
VL: B1 VL with N30G, S49Y, D50K, Y91H, G92Q, P93S, Y94F, P95S, Y96P
notes: huIgG1; also called TI-23; ADI-19090
B17: T1-26 (antibody, IgG1, V domains shown)
VH: QVQLVQSGAEVKKPGASVKVSCKASGYTFTSYYIHWVRQAPGQGLEWMGIINPSGGSTSYAQKFQGRVTMTRDTSTSTVYMELSSLRSEDTAVYYCARDSAQETYYYGMDVWGQGTTVTVSS
VL: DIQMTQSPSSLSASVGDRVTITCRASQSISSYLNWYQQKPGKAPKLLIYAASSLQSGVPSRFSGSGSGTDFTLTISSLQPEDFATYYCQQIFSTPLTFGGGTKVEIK
notes: huIgG1; also called TI-26

These binders were tested against T1, mouse TREM2 on BWZ cells (assay: FACS, BWZ cells).

Row | binding result | Binder
1 | no binding | B1
2 | no binding | B2
3 | no binding | B3
4 | no binding | B4
5 | no binding | B5
6 | no binding | B6
7 | no binding | B7
8 | no binding | B8
9 | no binding | B9
10 | no binding | B10
11 | no binding | B11
12 | no binding | B12
13 | no binding | B13
14 | no binding | B14
15 | no binding | B15
16 | no binding | B16
17 | no binding | B17

Each binder was assayed against T2, human TREM2 on BWZ cells (assay: FACS, BWZ cells).

Row | binding result | Binder
18 | no binding | B1
19 | no binding | B2
20 | no binding | B3
21 | no binding | B4
22 | no binding | B5
23 | no binding | B6
24 | no binding | B7
25 | no binding | B8
26 | no binding | B9
27 | no binding | B10
28 | no binding | B11
29 | no binding | B12
30 | no binding | B13
31 | no binding | B14
32 | no binding | B15
33 | no binding | B16
34 | no binding | B17

The binders below were run against T2, human TREM2 on BWZ cells (assay: FACS, BWZ human TREM2).

Row | FOB Fold Over Background [fold] | Binder
35 | 0.5 | B2
36 | 0.6 | B7
37 | 0.7 | B8
38 | 0.7 | B11
39 | 0.5 | B12
40 | 0.7 | B13
41 | 1.4 | B14
42 | 1 | B16
43 | 0.8 | B17

The binders below were run against T3, mouse TREM1 on CHO cells (assay: FACS, CHO mouse TREM1).

Row | FOB Fold Over Background [fold] | Binder
44 | 0.5 | B2
45 | 0.7 | B7
46 | 0.5 | B8
47 | 1 | B11
48 | 0.9 | B12
49 | 0.9 | B13
50 | 1.3 | B14
51 | 1 | B16
52 | 417 | B17

Each binder was assayed against T1, mouse TREM2 on BWZ cells (assay: FACS, BWZ mouse TREM2).

Row | FOB Fold Over Background [fold] | Binder
53 | 0.9 | B2
54 | 1 | B7
55 | 1.2 | B8
56 | 1.2 | B11
57 | 0.8 | B12
58 | 1.3 | B13
59 | 1.2 | B14
60 | 1.2 | B16
61 | 1.2 | B17
